{
  "source": "paper PMC12955871",
  "about": "“Structure‐Guided Engineering of a Promiscuous O‐Methyltransferase for a SAM Regeneration Biocatalysis Platform of Methylated Pharmaceuticals” (Advanced Science, 2025)",
  "assay_in_all_cases": "HPLC product formation, Michaelis-Menten fit",
  "type_in_all_cases": "biochemical, Selaginella moellendorffii",
  "key": {"O=c1ccc2cc3ccoc3c(O)c2o1": {"tested_on": "O=c1ccc2cc3ccoc3c(O)c2o1", "details": "1.6 mM SAM, pH 8.0, 37 °C"}, "[1]": {"tested_on": "O=c1c(O)c(-c2ccc(O)c(O)c2)oc2cc(O)cc(O)c12", "details": "1.6 mM SAM, pH 8.0, 37 °C"}, "CC(=O)c1ccc(O)c(O)c1O": {"tested_on": "CC(=O)c1ccc(O)c(O)c1O", "details": "1.6 mM SAM, pH 8.0, 37 °C, no added SAH, crystal structure is the SAH ternary complex"}},
  "data": [
    {"substance": "SmOMT (Selaginella moellendorffii)", "values": [
      {"measurement": "Km", "setting": "O=c1ccc2cc3ccoc3c(O)c2o1", "value": 225.4, "unit": "µM"},
      {"measurement": "Km", "setting": "[1]", "value": 585.1, "unit": "µM"},
      {"measurement": "Km", "setting": "CC(=O)c1ccc(O)c(O)c1O", "value": 51.7, "unit": "µM"}
    ]}
  ]
}
